# B1: D2 (4-1BBL trimer-Fc) (protein)
# chain: KEITNALETWGALGQDINLDIPSFQMSDDIDDIKWEKTSDKKKIAQFRKEKETFKEKDTYKLFKNGTLKIKHLKTDDQDIYKVSIYDTKGKNVLEKIFDLKIQERVSKPKISWTCINTTLTCEVMNGTDPELNLYQDGKHLKLSQRVITHKWTTSLSAKFKCTAGNKVSKESSVEPVSCPEKGLDIYLIIGICGGGSLLMVFVALLVFYITKRKKQRSRRNDEELETRAHRVATEERGRKPHQIPASTPQNPATSQHPPPPPGHRSQAPSHRPPPPGHRVQHQPQKRPPAPSGTQVHQQKGPPLPRPRVQPKPPHGAAENSLSPSSN
# Target: 4-1BB-Fc (human, UniProt Q07011)
# Test: BLI, 24C, avidity
# Sequence of 4-1BB-Fc (Q07011 24-186): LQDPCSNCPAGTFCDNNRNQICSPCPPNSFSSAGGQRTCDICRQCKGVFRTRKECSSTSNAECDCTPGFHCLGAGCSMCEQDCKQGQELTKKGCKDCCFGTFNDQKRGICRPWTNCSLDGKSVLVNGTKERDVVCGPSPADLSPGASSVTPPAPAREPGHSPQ
binder,measurement,value
B1,Kd,0.02 nM
